Drawing on the Immune Epitope Database (IEDB), this text covers Kd for 15 sequences.

For one test, the target named is HLA-B*73:01. Put plainly: IEDB peptide-MHC binding, purified MHC/competitive/fluorescence; filed as Kd, often an IC50 or EC50 that approximates it; ≥ and ≤ were set here for values at or beyond the usual limits of such assays.
The target in the next test is HLA-C*04:01. The test can be described thus: IEDB peptide-MHC binding, purified MHC/direct/fluorescence; filed as Kd, often an IC50 or EC50 that approximates it; ≥ and ≤ were set here for values at or beyond the usual limits of such assays. The settings on record: source organism: Homo sapiens.
The target of a further test is HLA-B*15:02. Put plainly: IEDB peptide-MHC binding, purified MHC/competitive/fluorescence; filed as Kd, often an IC50 or EC50 that approximates it; ≥ and ≤ were set here for values at or beyond the usual limits of such assays.
A further test has as its target HLA-C*06:02. The test can be described thus: IEDB peptide-MHC binding, purified MHC/direct/fluorescence; filed as Kd, often an IC50 or EC50 that approximates it; ≥ and ≤ were set here for values at or beyond the usual limits of such assays.
The next test addresses HLA-C*07:02. The description is as above.
Another test deals with HLA-B*40:01. Described as above. The settings on record: source organism: Vibrio cholerae.
Test [1] addresses HLA-A*03:01. Described as above. The settings on record: source organism: Vibrio cholerae.
In a further test the target is HLA-B*08:01. Described as above. The settings on record: source organism: Vibrio cholerae.
The target in a further test is HLA-A*30:01. The description is as above. The settings on record: source organism: Vibrio cholerae.
In test [2] the target is HLA-A*02:01. The test is described as above. Conditions: source organism: Vibrio cholerae.
The next test deals with HLA-A*31:01. The description is as above. Conditions: source organism: Vibrio cholerae.
The target of test [3] is HLA-B*27:05. The test is described as above. Conditions: source organism: Vibrio cholerae.
In the next test the target is HLA-A*11:01. The test is described as above. Conditions: source organism: Vibrio cholerae.
A further test addresses HLA-B*44:02. The test is described as above. The settings on record: source organism: Vibrio cholerae.
For another test, the target named is HLA-A*01:01. Described as above. The settings on record: source organism: Vibrio cholerae.
Another test has as its target HLA-B*07:02. Described as above. The settings on record: source organism: Vibrio cholerae.
The target in test [4] is HLA-A*26:01. The description is as above. Conditions: source organism: Vibrio cholerae.
A further test deals with HLA-B*58:01. The test is described as above. The settings on record: source organism: Vibrio cholerae.
Another test has as its target HLA-A*69:01. Described as above. Conditions: source organism: Vibrio cholerae.
For test [5], the target named is HLA-B*15:01. Described as above. Conditions: source organism: Vibrio cholerae.
The target of the next test is HLA-B*39:01. Put plainly: IEDB peptide-MHC binding, purified MHC/competitive/fluorescence; filed as Kd, often an IC50 or EC50 that approximates it; ≥ and ≤ were set here for values at or beyond the usual limits of such assays. The settings on record: source organism: Salmonella enterica subsp. enterica serovar Paratyphi A str. AKU_12601.
The target of test [6] is HLA-A*03:01. Described as above. The settings on record: source organism: Salmonella enterica subsp. enterica serovar Paratyphi A str. AKU_12601.
In another test the target is HLA-B*46:01. The description is as above. The settings on record: source organism: Salmonella enterica subsp. enterica serovar Paratyphi A str. AKU_12601.
For the next test, the target named is HLA-A*02:12. The description is as above. Conditions: source organism: Salmonella enterica subsp. enterica serovar Paratyphi A str. AKU_12601.
The next test concerns the target HLA-B*18:01. The description is as above. The settings on record: source organism: Salmonella enterica subsp. enterica serovar Paratyphi A str. AKU_12601.
The target in test [7] is HLA-A*02:01. The test is described as above. Conditions: source organism: Salmonella enterica subsp. enterica serovar Paratyphi A str. AKU_12601.
The target in another test is HLA-B*15:17. The description is as above. The settings on record: source organism: Salmonella enterica subsp. enterica serovar Paratyphi A str. AKU_12601.
Another test deals with HLA-A*24:03. The test is described as above. Conditions: source organism: Salmonella enterica subsp. enterica serovar Paratyphi A str. AKU_12601.
The target in the next test is HLA-A*29:02. Described as above. The settings on record: source organism: Salmonella enterica subsp. enterica serovar Paratyphi A str. AKU_12601.
A further test addresses HLA-B*57:01. The description is as above. Conditions: source organism: Salmonella enterica subsp. enterica serovar Paratyphi A str. AKU_12601.
For another test, the target named is HLA-B*51:01. The test is described as above. Conditions: source organism: Salmonella enterica subsp. enterica serovar Paratyphi A str. AKU_12601.
In a further test the target is HLA-A*02:19. The test is described as above. Conditions: source organism: Salmonella enterica subsp. enterica serovar Paratyphi A str. AKU_12601.
For test [8], the target named is HLA-A*26:01. Described as above. Conditions: source organism: Salmonella enterica subsp. enterica serovar Paratyphi A str. AKU_12601.
The target of the next test is HLA-B*27:03. The description is as above. Conditions: source organism: Salmonella enterica subsp. enterica serovar Paratyphi A str. AKU_12601.
In a further test the target is HLA-A*02:11. Described as above. Conditions: source organism: Salmonella enterica subsp. enterica serovar Paratyphi A str. AKU_12601.
Test [9] addresses HLA-B*15:01. The description is as above. Conditions: source organism: Salmonella enterica subsp. enterica serovar Paratyphi A str. AKU_12601.
For the next test, the target named is HLA-A*02:03. The description is as above. The settings on record: source organism: Salmonella enterica subsp. enterica serovar Paratyphi A str. AKU_12601.
For the next test, the target named is HLA-B*48:01. The description is as above. The settings on record: source organism: Encephalitozoon cuniculi GB-M1.
In test [10] the target is HLA-B*27:05. The description is as above. Conditions: source organism: Encephalitozoon cuniculi GB-M1.
[11] abbreviates: source organism: Vibrio vulnificus CMCP6.
[12] abbreviates: source organism: Encephalitozoon cuniculi GB-M1.

As to SDFFDRLQV, in the test with HLA-B*73:01 (source organism: Cryptosporidium parvum Iowa II), the Kd is no less than 20 µM.

On to WYDALCVLL, for which, in the test with HLA-C*04:01, the Kd was 0.035 µM.

For GLYQGIVGF, the Kd with HLA-B*15:02 (source organism: Rickettsia prowazekii str. Madrid E) came out at 0.0596 µM.

For the sequence ILRDGQRWY, in the test with HLA-B*15:02 (source organism: Yersinia pestis CO92), the Kd was 0.0552 µM. This counts as double-digit nanomolar.

As for FMIVNNFPV, the figures for the Kd with HLA-C*06:02 (setting [11]) and with HLA-C*07:02 (setting [11]) were 0.633 µM and 1.01 µM, respectively.

With GKFFAQAFL, the equilibrium dissociation constant (Kd) is no less than 20 µM in the test with HLA-B*73:01 (source organism: Vibrio cholerae); no less than 20 µM with HLA-B*40:01; no less than 20 µM with HLA-A*03:01 [1]; no less than 20 µM with HLA-B*08:01; 0.753 µM in the test with HLA-A*30:01; no less than 20 µM with HLA-A*02:01 [2]. Further, the Kd is no less than 20 µM with HLA-A*31:01; 1.29 µM with HLA-B*27:05 [3]; no less than 20 µM in the test with HLA-A*11:01; no less than 20 µM with HLA-B*44:02; no less than 20 µM with HLA-A*01:01; no less than 20 µM in the test with HLA-B*07:02. Further, the Kd in the test with HLA-A*26:01 [4], in the test with HLA-B*58:01, in the test with HLA-A*69:01 and with HLA-B*15:01 [5] was no less than 20 µM throughout.

RKKLRPRWL returned a Kd with HLA-C*06:02 (source organism: dengue virus type 1) of no less than 20 µM.

The sequence QLLDFLLAY showed a Kd with HLA-B*15:02 (source organism: Shigella dysenteriae Sd197) of 0.0558 µM.

As to AMDTHLYFE, the Kd was no less than 20 µM in the test with HLA-B*39:01; no less than 20 µM in the test with HLA-A*03:01 [6]; no less than 20 µM with HLA-B*46:01; 0.284 µM in the test with HLA-A*02:12; no less than 20 µM in the test with HLA-B*18:01; no less than 20 µM with HLA-A*02:01 [7]. Also, the Kd with HLA-B*15:17, with HLA-A*24:03, in the test with HLA-A*29:02, with HLA-B*57:01, with HLA-B*51:01 and with HLA-A*02:19 was no less than 20 µM each time. For the same sequence, the Kd in the test with HLA-A*26:01 [8] was no less than 20 µM; with HLA-B*27:03, no less than 20 µM; with HLA-A*02:11, 0.0539 µM; with HLA-B*15:01 [9] it was no less than 20 µM; in the test with HLA-A*02:03 it was no less than 20 µM.

YFYYNAFHW: the Kd was no less than 20 µM with HLA-C*04:01 and 2.06 µM in the test with HLA-C*07:02 (source organism: Homo sapiens).

In the test with HLA-B*15:02 (source organism: Clostridium botulinum A str. ATCC 3502), HMLVVIRKY yielded a Kd of 0.194 µM.

Turning to YYNAFHWAI, the equilibrium dissociation constant (Kd) in the test with HLA-C*07:02 (source organism: Homo sapiens) worked out at 0.715 µM.

In turn, FILSGRFSY showed an equilibrium dissociation constant (Kd) in the test with HLA-B*15:02 (source organism: Shigella flexneri) of 0.396 µM.

In the test with HLA-B*73:01 (source organism: Clostridium novyi NT), SRDYYRHKV showed a dissociation constant (Kd) of 3.62 µM.

For the sequence YRFNLRRKM, the Kd in the test with HLA-B*48:01 was no less than 20 µM; with HLA-B*27:05 [10] it was 0.0012 µM; with HLA-B*73:01 (setting [12]), 0.0851 µM; in the test with HLA-C*06:02 (setting [12]) it was 0.01 µM.

A word on the Kd: it is the equilibrium constant for the complex coming apart. The low end stands for higher affinity, the high end for lower affinity.
